Test results: patent US6218600A, “Structure and expression of the biotin carboxylase subunit of heteromeric acetyl-CoA carboxylase” (Board of Trustees Operating Michigan State University, priority 1996, dated 2001)

Key:
Castor Endosperm ACCase = assay: ACCase activity assay, castor endosperm extract, with metabolites of fatty acid synthesis; type: biochemical, castor (Ricinus Communis L.); conditions: mean of duplicate determinations ± standard deviation, 15 min
Pea Chloroplast ACCase = assay: ACCase activity assay, pea chloroplast enzyme partially purified by gel permeation, with metabolites of fatty acid synthesis; type: biochemical, pea (Pisum sativum); conditions: mean of duplicate determinations ± standard deviation, 15 min

Molecule | Castor ACCase Activity (% of Control) (Castor Endosperm ACCase; 10 μM addition) | Pea ACCase Activity (% of control) (Pea Chloroplast ACCase; 1 μM addition) | Pea ACCase Activity (% of control) (Pea Chloroplast ACCase; 3 μM addition) | Pea ACCase Activity (% of control) (Pea Chloroplast ACCase; 10 μM addition) | Castor ACCase Activity (% of Control) (Castor Endosperm ACCase; 5 μM addition)
CCCCCCCCCCCCCCCC(=O)O [16:0, reference compound] | 97 ± 8 % of Control |  |  |  | 
CCCCCCCC/C=C\CCCCCCCC(=O)O [18:1, Oleic acid, reference compound] | 72 ± 10 % of Control |  |  |  | 
16:0-ACP: long-chain acyl-ACP synthesized from radioactive 16:0 fatty acid and recombinant spinach ACP-I (conjugate, UniProt P07854 57-138, looked up, radiolabeled palmitoyl (16:0) acyl thioester) Acyl carrier protein 1, …: AKKETIDKVCDIVKEKLALGADVVVTADSEFSKLGADSLDTVEIVMNLEEEFGINVDEDKAQDISTIQQAADVIESLLEKKA | 75 ± 3 % of Control | 98 ± 2 % of control | 91 ± 4 % of control | 77 ± 4 % of control | 
18:1-ACP: long-chain acyl-ACP synthesized from radioactive 18:1 fatty acid and recombinant spinach ACP-I (conjugate, UniProt P07854 57-138, looked up, radiolabeled oleoyl (18:1) acyl thioester) Acyl carrier protein 1, …: AKKETIDKVCDIVKEKLALGADVVVTADSEFSKLGADSLDTVEIVMNLEEEFGINVDEDKAQDISTIQQAADVIESLLEKKA | 63 ± 11 % of Control | 97 ± 1 % of control | 87 ± 3 % of control | 79 ± 14 % of control | 81 ± 9 % of Control
